Assay [1] has as its target T1, CD47 (human, UniProt Q08722 19-323).
T1 construct: whole, on cells; Human by the cells used (blood of human donors; human Ramos, A549, BT474, Raji, Namalwa cells); also called human CD47
Briefly: flow cytometry on CD47-high (CD47-transfected) CHO cells. On the procedure:
(§1) After washing again, cells were fixed with 1% formaldehyde in PBS. Cells were analyzed by flow cytometry (MACSQuant, Miltenyi Biotec, Cologne, Germany).
On the technique in general: Flow cytometry measures light scatter and fluorescence of single cells or particles in a stream.

The target of assay [2] is T1, CD47. In words: flow cytometry on CD47-low human Ramos cells. On the procedure: as §1
For assay [3], the target named is T2, HER2 (human, UniProt P04626 23-1255).
T2 construct: whole, on cells; The cells carry CD47 as well
In words: flow cytometry on BT474 cells. On the procedure: After washing with PBS+1% FBS, cells were incubated with FITC F(ab′)2 goat Anti-Human IgG, Fcγ (Jackson ImmunoResearch, West Grove, Pa.), diluted 1:200 in PBS+1% FBS for 60 min on ice. After washing again, cells were fixed with 1% formaldehyde in PBS. Cells were analyzed by flow cytometry (MACSQuant, Miltenyi Biotec, Cologne, Germany).

For assay [4], the target named is T1, CD47. Briefly: flow cytometry on CD47-transfected CHO cells.

Here are results for three molecules from US20160177276A1 (Merck KGaA, published 2016).

B1: chimeric antibody B6H12/huIgG1 (antibody, V domains shown)
VH: EVQLQESGGDLVKPGGSLKLSCAASGFTFSGYGMSWVRQTPDKRLEWVATITSGGTYTYYPDSVKGRFTISRDNAKNTLYLQIDSLKSEDTAIYFCARSLAGNAMDYWGQGTTVTVSS
VL: DIVITQSPATLSVTPGDRVSLSCRASQTISDYLHWYQQKSHESPRLLIKFASQSISGIPSRFSGSGSGSDFTLSINSVEPEDVGVYYCQNGHGFPRTFGGGTKLEIKR
notes: also called anti-CD47; anti-CD47 huIgG1
In the case of B1, the figures for the EC50 in assay [1] and in assay [2] were 7 nM and 6 nM, respectively.

B2: Fcab(HER2) (other)
chain: EPKSSDKTHTCPPCPAPELLGGPSVFLFPPKPKDTLMISRTPEVTCVVVDVSHEDPEVKFNWYVDGVEVHNAKTKPREEQYNSTYRVVSVLTVLHQDWLNGKEYKCKVSNKALPAPIEKTISKAKGQPREPQVYTLPPSRDEYLYGDVSLTCLVKGFYPSDIAVEWESNGQPENNYKTTPPVLDSDGSFFLYSKLTVPRHSARMWRWAHGNVFSCSVMHEALHNHYTQKSLSLSPGK
notes: also called anti-HER2 Fcab H10-03-6
With B2, the binding result in assay [3] is reported as “binds”; in assay [4], “no binding”.

B3: anti-CD20 huIgG1 (antibody, V domains shown)
VH: QVQLQQPGAELVKPGASVKMSCKASGYTFTSYNMHWVKQTPGRGLEWIGAIYPGNGDTSYNQKFKGKATLTADKSSSTAYMQLSSLTSEDSAVYYCARSTYYGGDWYFNVWGAGTTVTVSA
VL: QIVLSQSPAILSASPGEKVTMTCRASSSVSYIHWFQQKPGSSPKPWIYATSNLASGVPVRFSGSGSGTSYSLTISRVEAEDAATYYCQQWTSNPPTFGGGTKLEIKR
notes: Control in standard monoclonal antibody format, huIgG1, based on 2B8 (rituximab); not shown: rest of the human IgG1 heavy chain
Take B3: the binding result in assay [4] was “no binding”.
